Like-named read-outs stand apart in the source and are kept apart here.

The target of assay [1] is wild-type HexaPro (D614) SARS-CoV-2 spike trimer (SARS-CoV-2). The assay is described as follows: BLI; Octet Red384; […]; analyte ([…]; HBS-EP+ buffer; 1:1 binding model.
Assay [2] shares this target. The description is as above. The source holds these as a separate data set.

Take “cilgavimab (AZD1061), full-length IgG (antibody)”: the Kd in assay [1] was 0.669 nM; in assay [2], below 0.001 nM.

For the origin of these results see PMC9704045.
